Drawing on paper PMC1888729, this text covers stoichiometry N (U2AF35 per U2AF65) for two molecules.

In assay [1] the target is T1, His-tagged U2AF35 (HEK-293E), Q01081.
T1 chain: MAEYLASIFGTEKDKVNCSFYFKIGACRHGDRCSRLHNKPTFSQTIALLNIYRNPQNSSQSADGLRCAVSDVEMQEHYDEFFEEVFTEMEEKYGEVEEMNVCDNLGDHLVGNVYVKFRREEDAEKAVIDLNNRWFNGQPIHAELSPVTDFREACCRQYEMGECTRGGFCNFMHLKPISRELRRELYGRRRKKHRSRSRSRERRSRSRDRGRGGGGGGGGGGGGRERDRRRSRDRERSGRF
Nature of the assay: pull-down; His-tagged U2AF35 expressed in 293E cells, lysate (50 mM Tris-HCl pH 8, 1% NP-40, 5 mM imidazole) on Ni-NTA agarose 1 h at 4°C, wash 0.5 M NaCl, eluted with 0.5 M imidazole; western blot; amounts by Coomassie stain against BSA. As to conditions: remark: other sources report otherwise.

Assay [2] deals with T2, U2AF35 (recombinant human, baculovirus-infected SF9 cells) (human), Q01081.
T2 chain: T1 chain
As to the kind of experiment: co-purification; human U2AF65/35 heterodimer purified from baculovirus-infected SF9 cells as described previously. As to conditions: remark: other sources report otherwise.

B1: U2AF65 (co-purified from HEK-293E), P26368 1-475 (natural protein)
chain: MSDFDEFERQLNENKQERDKENRHRKRSHSRSRSRDRKRRSRSRDRRNRDQRSASRDRRRRSKPLTRGAKEEHGGLIRSPRHEKKKKVRKYWDVPPPGFEHITPMQYKAMQAAGQIPATALLPTMTPDGLAVTPTPVPVVGSQMTRQARRLYVGNIPFGITEEAMMDFFNAQMRLGGLTQAPGNPVLAVQINQDKNFAFLEFRSVDETTQAMAFDGIIFQGQSLKIRRPHDYQPLPGMSENPSVYVPGVVSTVVPDSAHKLFIGGLPNYLNDDQVKELLTSFGPLKAFNLVKDSATGLSKGYAFCEYVDINVTDQAIAGLNGMQLGDKKLLVQRASVGAKNATLVSPPSTINQTPVTLQVPGLMSSQVQMGGHPTEVLCLMNMVLPEELLDDEEYEEIVEDVRDECSKYGLVKSIEIPRPVDGVEVPGCGKIFVEFTSVFDCQKAMQGLTGRKFANRVVVTKYCDPDSYHRRDFW
In the case of B1, the stoichiometry N (U2AF35 per U2AF65) in assay [1] was 3.5.

B2: U2AF65 (recombinant human, baculovirus-infected SF9 cells), P26368 1-475 (natural protein)
chain: B1 chain
For the molecule B2, in assay [2], the stoichiometry N (U2AF35 per U2AF65) was 1.
